From paper PMC10397247

Key:
[1] = target: T1, 4H3865-AA; experiment: two-hybrid library CCmax; details: mean of both orientations;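 note: natural log of median RNA to DNA barcode read ratio; higher means stronger binding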
T1 chain: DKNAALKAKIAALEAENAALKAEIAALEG

[2] = target: T2, 4H3588-AA; experiment: two-hybrid library CCmax; details: mean of both orientations;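 note: natural log of median RNA to DNA barcode read ratio; higher means stronger binding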
T2 chain: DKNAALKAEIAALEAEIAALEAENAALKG

[3] = target: T3, 4H3631-AA; experiment: two-hybrid library CCmax; details: mean of both orientations;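 note: natural log of median RNA to DNA barcode read ratio; higher means stronger binding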
T3 chain: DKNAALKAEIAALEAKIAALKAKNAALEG

[4] = target: T4, 4H32-AA; experiment: two-hybrid library CCmax; details: mean of both orientations;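 note: natural log of median RNA to DNA barcode read ratio; higher means stronger binding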
T4 chain: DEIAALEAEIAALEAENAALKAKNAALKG

[5] = target: T5, 4H3378-AA; experiment: two-hybrid library CCmax; details: mean of both orientations;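 note: natural log of median RNA to DNA barcode read ratio; higher means stronger binding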
T5 chain: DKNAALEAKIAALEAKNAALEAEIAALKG

[6] = target: T6, 4H3606-AA; experiment: two-hybrid library CCmax; details: mean of both orientations;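 note: natural log of median RNA to DNA barcode read ratio; higher means stronger binding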
T6 chain: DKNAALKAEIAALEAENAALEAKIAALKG

[7] = target: T7, 4H982-AA; experiment: two-hybrid library CCmax; details: mean of both orientations
T7 chain: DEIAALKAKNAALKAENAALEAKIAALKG

[8] = target: T8, 4H697-AA; experiment: two-hybrid library CCmax; details: mean of both orientations
T8 chain: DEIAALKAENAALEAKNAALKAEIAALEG

[9] = target: T9, 4H3718-AA; experiment: two-hybrid library CCmax; details: mean of both orientations
T9 chain: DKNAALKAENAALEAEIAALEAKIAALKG

[10] = target: T10, 4H3413-AA; experiment: two-hybrid library CCmax; details: mean of both orientations
T10 chain: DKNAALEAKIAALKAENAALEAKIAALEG

[11] = target: T11, 4H3697-AA; experiment: two-hybrid library CCmax; details: mean of both orientations
T11 chain: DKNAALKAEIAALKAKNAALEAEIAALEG

[12] = target: T12, 4H340-AA; experiment: two-hybrid library CCmax; details: mean of both orientations
T12 chain: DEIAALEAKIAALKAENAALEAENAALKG

[13] = target: T13, 4H3162-AA; experiment: two-hybrid library CCmax
T13 chain: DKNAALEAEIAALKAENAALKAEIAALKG

[14] = target: T14, 4H384-AA; experiment: two-hybrid library CCmax; details: mean of both orientations
T14 chain: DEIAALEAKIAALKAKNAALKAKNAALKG

[15] = target: T15, 4H446-AA; experiment: two-hybrid library CCmax; details: mean of both orientations
T15 chain: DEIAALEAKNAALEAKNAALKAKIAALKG

[16] = target: T16, 4H380-AA; experiment: two-hybrid library CCmax; details: mean of both orientations
T16 chain: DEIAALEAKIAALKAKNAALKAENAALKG

[17] = target: T17, 4H324-AA; experiment: two-hybrid library CCmax
T17 chain: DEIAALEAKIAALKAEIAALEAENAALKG

[18] = target: T18, 4H432-AA; experiment: two-hybrid library CCmax; details: mean of both orientations
T18 chain: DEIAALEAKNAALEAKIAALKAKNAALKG

[19] = target: T19, 4H3777-AA; experiment: two-hybrid library CCmax; details: mean of both orientations
T19 chain: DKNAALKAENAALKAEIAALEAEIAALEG

[20] = target: T20, 4H63-AA; experiment: two-hybrid library CCmax; details: mean of both orientations
T20 chain: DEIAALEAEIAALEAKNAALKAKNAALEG

[21] = target: T21, 4H341-AA; experiment: two-hybrid library CCmax; details: mean of both orientations
T21 chain: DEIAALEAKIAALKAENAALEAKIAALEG

[22] = target: T22, 4H3915-AA; experiment: two-hybrid library CCmax; details: mean of both orientations
T22 chain: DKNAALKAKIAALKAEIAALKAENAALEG

[23] = target: T23, 4H3449-AA; experiment: two-hybrid library CCmax; details: mean of both orientations
T23 chain: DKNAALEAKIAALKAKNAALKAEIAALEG

[24] = target: T24, 4H3974-AA; experiment: two-hybrid library CCmax; details: mean of both orientations
T24 chain: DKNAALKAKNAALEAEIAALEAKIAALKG

[25] = target: T25, 4H3629-AA; experiment: two-hybrid library CCmax; details: mean of both orientations
T25 chain: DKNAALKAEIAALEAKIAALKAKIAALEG

[26] = target: T26, 4H3619-AA; experiment: two-hybrid library CCmax; details: mean of both orientations
T26 chain: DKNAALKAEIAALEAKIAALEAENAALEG

[27] = target: T27, 4H492-bA; experiment: two-hybrid library CCNG1
T27 chain: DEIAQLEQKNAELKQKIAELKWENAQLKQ

[28] = target: T28, 4H741-bA; experiment: two-hybrid library CCNG1
T28 chain: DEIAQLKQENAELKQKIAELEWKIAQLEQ

Q: With DKNAALEAEIAALKAENAALKAEIAALKG [4H3162-AA] as the binder, how does the interaction score [1] read?
A: The interaction score was -0.607.

Q: And the interaction score [2]?
A: Its interaction score is -1.53.

Q: What about the interaction score [3] of the same binder?
A: Its interaction score is -1.62.

Q: What about the interaction score [4] of the same binder?
A: Its interaction score is -1.53.

Q: What about the interaction score [5] of the same binder?
A: The interaction score was -1.59.

Q: And the interaction score [6]?
A: Its interaction score is -0.0579.

Q: What about the interaction score [7] of the same binder?
A: Its interaction score is -1.88.

Q: What about the interaction score [8] of the same binder?
A: Its interaction score is -1.39.

Q: And the interaction score [9]?
A: Its interaction score is -1.43.

Q: And the interaction score [10]?
A: Its interaction score is -1.04.

Q: And the interaction score [11]?
A: Its interaction score is -1.2.

Q: And the interaction score [12]?
A: Its interaction score is -1.4.

Q: What about the interaction score [13] of the same binder?
A: Its interaction score is 0.942.

Q: What about the interaction score [14] of the same binder?
A: Its interaction score is -1.58.

Q: For DEIAALEAKIAALKAEIAALEAENAALKG [4H324-AA], which interaction score [15] is on record?
A: Its interaction score is -1.06.

Q: What about the interaction score [16] of the same binder?
A: The interaction score was 0.833.

Q: What about the interaction score [17] of the same binder?
A: The interaction score was 1.11.

Q: And the interaction score [18]?
A: Its interaction score is -0.834.

Q: What about the interaction score [19] of the same binder?
A: Its interaction score is -1.37.

Q: And the interaction score [20]?
A: The interaction score was -0.0237.

Q: And the interaction score [21]?
A: The interaction score was -0.39.

Q: And the interaction score [22]?
A: The interaction score was 0.128.

Q: What about the interaction score [23] of the same binder?
A: Its interaction score is -1.69.

Q: What about the interaction score [24] of the same binder?
A: The interaction score was 1.2.

Q: What about the interaction score [25] of the same binder?
A: Its interaction score is 1.36.

Q: And the interaction score [26]?
A: The interaction score was 1.47.

Q: How did the interaction score [27] turn out when DEIAQLEQKNAELKQKIAELKWENAQLKQ [4H492-bA] was run?
A: Its interaction score is -0.566.

Q: And the interaction score [28]?
A: Its interaction score is -1.59.
